15 substances from patent publication US20240132578A1 can be followed below.

What all share (test): cell-based or functional assay
Experiment [1] addresses HIV-1 envelope glycoprotein (Env) of isolate 93IN905, on pseudovirus (HIV-1).
Experiment [2] addresses HIV-1 envelope glycoprotein (Env) of isolate 93UG077, subtype A (HIV-1).
For experiment [3], the target named is HIV-1 envelope glycoprotein (Env) of isolate MGRM-Chronic-B-003, on pseudovirus (HIV-1).
In another experiment the target is HIV-1 APV6 Env (HIV-1).
The target in experiment [4] is HIV-1 JR-CSF Env E466A (HIV-1 (isolate JR-CSF)) (UniProt P20871).
For experiment [5], the target named is HIV-1 envelope glycoprotein (Env) of isolate MG RM-A-008, subtype A (HIV-1).
Experiment [6] deals with HIV-1 envelope glycoprotein (Env) of isolate MGRM-Chronic-B-002, on pseudovirus (HIV-1).
Experiment [7] addresses HIV-1 envelope glycoprotein (Env) of isolate MGRM-Chronic-B-008, on pseudovirus (HIV-1).
Experiment [8] addresses HIV-1 JR-CSF Env S393A (HIV-1 (isolate JR-CSF)) (UniProt P20871).
Experiment [9] addresses HIV-1 JR-CSF Env N411A (HIV-1 (isolate JR-CSF)) (UniProt P20871).
Experiment [10] has as its target HIV-1 envelope glycoprotein (Env) of isolate MG RM-A-004, subtype A (HIV-1).
Experiment [11] addresses HIV-1 envelope glycoprotein (Env) of isolate MGRM-Chronic-B-012, on pseudovirus (HIV-1).
Experiment [12] deals with HIV-1 Env of isolate MGRM-F1-018 (HIV-1).
Experiment [13] deals with HIV-1 Env of isolate MGRM-G-028 (subtype G) (HIV-1).
Experiment [14] addresses HIV-1 Env of pseudovirus isolate CAAN.A2 (clade B) (HIV-1).
For experiment [15], the target named is HIV-1 Env of isolate MG RM-A-007 (pseudovirus) (HIV-1).
Experiment [16] has as its target HIV-1 Env of isolate MGRM-A-008 (subtype A) (HIV-1).
The target in experiment [17] is HIV-1 Env of pseudovirus isolate MGRM-C-008 (clade C) (HIV-1).
The target of experiment [18] is HIV-1 Env of pseudovirus isolate MGRM-C-020 (clade C) (HIV-1).
Experiment [19] has as its target HIV-1 Env of isolate MGRM-AE-004 (subtype AE) (HIV-1).
In experiment [20] the target is HIV-1 Env of isolate MGRM-C-001 (HIV-1).
Experiment [21] deals with HIV-1 Env of isolate 98CN009 (pseudovirus) (HIV-1).
The target of experiment [22] is HIV-1 Env of isolate MGRM-AE-002 (subtype AE) (HIV-1).
Experiment [23] has as its target HIV-1 Env of isolate MGRM-F1-008 (HIV-1).
Experiment [24] deals with HIV-1 CMU02 Env (pseudovirus) (HIV-1).
Experiment [25] concerns the target HIV-1 Env of pseudovirus MGRM-G-015 (HIV-1).
In experiment [26] the target is HIV-1 MGRM-AE-001 Env (pseudovirus) (HIV-1).
Experiment [27] addresses HIV-1 Env of isolate MGRM-D-024 (clade D pseudovirus) (HIV-1).
Experiment [28] deals with HIV-1 Env of isolate 93IN905 (Clade C) (HIV-1).
Experiment [29] deals with HIV-1 MGRM-G-006 Env (pseudovirus) (HIV-1).
Experiment [30] deals with HIV-1 Env of isolate 92RW008 (clade A pseudovirus) (HIV-1).
Experiment [31] concerns the target HIV-1 envelope glycoprotein (Env) of isolate MGRM-C-019 (HIV-1).
Experiment [32] addresses HIV-1 Env of isolate MGRM-A-012 (clade A pseudovirus) (HIV-1).
Experiment [33] has as its target HIV-1 Env of pseudovirus MGRM-G-014 (HIV-1).
Experiment [34] concerns the target HIV-1 envelope glycoprotein (Env) of isolate MGRM-C-012 (HIV-1).
Experiment [35] concerns the target HIV-1 APV-6 envelope (Env) on pseudovirus (HIV-1).

Sequence of 5329_C19 (PGT-136) (antibody) (VH): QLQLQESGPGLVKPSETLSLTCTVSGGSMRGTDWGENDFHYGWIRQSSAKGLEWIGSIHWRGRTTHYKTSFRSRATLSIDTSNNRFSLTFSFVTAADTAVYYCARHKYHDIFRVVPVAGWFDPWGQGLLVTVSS
Sequence of 5329_C19 (PGT-136) (antibody) (VL): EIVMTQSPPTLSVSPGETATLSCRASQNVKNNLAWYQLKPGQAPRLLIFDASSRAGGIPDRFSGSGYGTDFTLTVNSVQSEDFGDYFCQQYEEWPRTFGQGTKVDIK
Sequence of 4995_P16 (PGT-145) (antibody) (VH): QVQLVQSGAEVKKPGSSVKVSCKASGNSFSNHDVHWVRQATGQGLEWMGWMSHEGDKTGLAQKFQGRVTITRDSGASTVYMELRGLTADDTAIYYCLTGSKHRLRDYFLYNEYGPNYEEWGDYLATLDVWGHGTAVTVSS
Sequence of 4995_P16 (PGT-145) (antibody) (VL): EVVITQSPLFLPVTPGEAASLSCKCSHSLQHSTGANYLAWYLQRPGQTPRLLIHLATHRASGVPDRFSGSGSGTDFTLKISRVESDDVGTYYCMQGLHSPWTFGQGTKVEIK
Sequence of 4995_E20 (PGT-142) (antibody) (VH): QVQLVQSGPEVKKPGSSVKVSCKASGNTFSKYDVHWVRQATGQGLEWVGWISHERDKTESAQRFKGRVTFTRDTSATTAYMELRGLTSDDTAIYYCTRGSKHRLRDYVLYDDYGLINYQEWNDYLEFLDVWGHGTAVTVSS
Sequence of 4995_E20 (PGT-142) (antibody) (VL): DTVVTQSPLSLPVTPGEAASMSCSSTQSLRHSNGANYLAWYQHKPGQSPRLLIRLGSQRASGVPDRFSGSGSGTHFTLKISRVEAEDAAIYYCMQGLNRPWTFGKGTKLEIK
Sequence of 4993_K13 (PGT-141) (antibody) (VH): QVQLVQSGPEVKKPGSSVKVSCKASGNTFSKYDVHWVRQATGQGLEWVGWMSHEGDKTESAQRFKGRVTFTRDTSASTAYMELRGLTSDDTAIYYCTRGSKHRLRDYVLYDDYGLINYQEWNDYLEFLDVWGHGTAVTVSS
Sequence of 5345_I01 (PGT-137) (antibody) (VH): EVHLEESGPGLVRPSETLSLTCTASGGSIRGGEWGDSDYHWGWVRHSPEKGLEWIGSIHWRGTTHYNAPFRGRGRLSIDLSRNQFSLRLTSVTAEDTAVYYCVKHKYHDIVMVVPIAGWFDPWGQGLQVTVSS
Sequence of 5345_I01 (PGT-137) (antibody) (VL): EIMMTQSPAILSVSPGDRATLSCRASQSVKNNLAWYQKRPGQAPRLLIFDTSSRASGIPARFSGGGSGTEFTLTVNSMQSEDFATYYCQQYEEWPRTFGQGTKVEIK
Sequence of 4980_N08 (PGT-143) (antibody) (VH): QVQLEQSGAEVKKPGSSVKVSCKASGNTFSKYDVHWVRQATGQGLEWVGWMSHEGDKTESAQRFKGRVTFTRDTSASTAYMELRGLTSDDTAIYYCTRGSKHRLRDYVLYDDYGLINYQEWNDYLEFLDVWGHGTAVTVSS
Sequence of 4980_N08 (PGT-143) (antibody) (VL): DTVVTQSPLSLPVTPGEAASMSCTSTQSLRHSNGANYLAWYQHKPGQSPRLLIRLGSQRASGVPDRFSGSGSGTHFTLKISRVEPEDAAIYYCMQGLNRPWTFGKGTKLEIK
Sequence of 4970_K22 (PGT-144) (antibody) (VH): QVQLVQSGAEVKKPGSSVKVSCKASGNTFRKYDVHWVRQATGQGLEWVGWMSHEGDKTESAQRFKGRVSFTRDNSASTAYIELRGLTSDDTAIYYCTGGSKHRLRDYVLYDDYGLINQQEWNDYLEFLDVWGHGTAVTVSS
Sequence of 4970_K22 (PGT-144) (antibody) (VL): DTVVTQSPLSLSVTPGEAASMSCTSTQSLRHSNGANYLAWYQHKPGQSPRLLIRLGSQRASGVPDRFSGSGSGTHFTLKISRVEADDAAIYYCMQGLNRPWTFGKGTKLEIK

In the case of 4858_P08 (PGT-123) (antibody), the IC50, pseudovirus neutralization in experiment [1] is 0.004 µg/mL; in [2], 0.028 µg/mL; in experiment [3], 0.008 µg/mL; with HIV-1 APV6 Env (HIV-1), 0.0327 µg/mL; in [5], above 50 µg/mL; in experiment [6], 0.234 µg/mL. Also, the IC50, pseudovirus neutralization in experiment [7] was 0.01 µg/mL; in [10], above 50 µg/mL; in experiment [11], 0.227 µg/mL. Further, the Fold IC50 increase relative to wild-type (pseudovirus neutralization) in [4] came to 0.6 fold; in [8] it was 0.6 fold; in experiment [9], 0.5 fold.
For the substance 4838_L06 (PGT-121) (antibody), the IC50, pseudovirus neutralization in [1] was 0.005 µg/mL; in [2] it was 0.019 µg/mL; in [3], 0.011 µg/mL; in [5], above 50 µg/mL; in experiment [6] it was 0.386 µg/mL; in [7] it was 0.007 µg/mL. The figures for the IC50, pseudovirus neutralization in [10] and in experiment [11] were above 50 µg/mL and 0.036 µg/mL, respectively.
In the case of 5145_B14 (PGT-127) (antibody), the IC50, pseudovirus neutralization in experiment [1] is 0.024 µg/mL; in [2] it was 0.055 µg/mL; in experiment [3] it was 0.12 µg/mL; in experiment [5], above 50 µg/mL; in experiment [6], 0.279 µg/mL; in experiment [7], 21.5 µg/mL. Moreover, the IC50, pseudovirus neutralization is above 50 µg/mL in [10] and 0.075 µg/mL in experiment [11]. For the same substance, the values for the Fold IC50 increase relative to wild-type (pseudovirus neutralization) in experiment [4], in [8] and in experiment [9] were 0.9 fold, 1.2 fold and 0.8 fold, respectively.
On to PGV04 (antibody), for which the IC50 (µg/mL), pseudovirus neutralization was 0.027 µg/mL in experiment [12] and 0.352 µg/mL in [13].
4970_K22 (PGT-144) (antibody) showed an IC50, pseudovirus neutralization in experiment [14] above 50 µg/mL. Besides, in experiment [15], the IC50 (µg/mL), single-round pseudovirus neutralization was above 50 µg/mL. This substance also registered an IC50 (µg/mL), pseudovirus neutralization in experiment [13] above 50 µg/mL.
Consider 4995_E20 (PGT-142) (antibody), for which the IC50, pseudovirus neutralization in experiment [14] was above 50 µg/mL. The substance further registered an IC50 (µg/mL), single-round pseudovirus neutralization in experiment [15] above 50 µg/mL. Besides, the IC50 (µg/mL), pseudovirus neutralization in experiment [13] was 30.3 µg/mL.
Take 4877_D15 (PGT-122) (antibody): the IC50, pseudovirus neutralization in [1] was 0.013 µg/mL; in [2], 0.084 µg/mL; in [3], 0.008 µg/mL; with HIV-1 APV6 Env (HIV-1), 0.0851 µg/mL; in experiment [5], above 50 µg/mL; in [6], 1.8 µg/mL. Also, the IC50, pseudovirus neutralization was 0.017 µg/mL in experiment [7], above 50 µg/mL in experiment [10] and 0.066 µg/mL in experiment [11].
5345_I01 (PGT-137) (antibody): the IC50, pseudovirus neutralization in experiment [16], in experiment [17], in experiment [18], in experiment [19] and in experiment [22] was above 50 µg/mL throughout. In addition, the IC50 (µg/mL), pseudovirus neutralization in experiment [12] is above 50 µg/mL; in experiment [20], 21.5 µg/mL; in experiment [21], 5.06 µg/mL; in [23], above 50 µg/mL.
Regarding 5329_C19 (PGT-136) (antibody), the IC50, pseudovirus neutralization in [16], in [17], in experiment [18], in experiment [19] and in experiment [22] was above 50 µg/mL each time. The IC50 (µg/mL), pseudovirus neutralization in [12] is above 50 µg/mL; in experiment [20], 7.52 µg/mL; in experiment [21], 0.428 µg/mL; in experiment [23], above 50 µg/mL.
On to 4993_K13 (PGT-141) (antibody), for which, in [14], the IC50, pseudovirus neutralization was above 50 µg/mL. Further, the IC50 (µg/mL), single-round pseudovirus neutralization in [15] was above 50 µg/mL. Further, in experiment [13], the IC50 (µg/mL), pseudovirus neutralization was found to be 24.9 µg/mL.
Take 5141_B17 (PGT-126) (antibody): the IC50, pseudovirus neutralization in experiment [1] was 0.015 µg/mL; in [2], 0.02 µg/mL; in [3], 0.041 µg/mL; with HIV-1 APV6 Env (HIV-1), 0.0249 µg/mL; in [5], above 50 µg/mL; in experiment [6] it was 0.078 µg/mL. Moreover, the IC50, pseudovirus neutralization in experiment [7] is 5.89 µg/mL; in experiment [10] it was above 50 µg/mL; in [11] it was 0.027 µg/mL. The Fold IC50 increase relative to wild-type (pseudovirus neutralization) in [4] is 1.4 fold; in experiment [8], 0.5 fold; in [9], 0.7 fold.
For 4995_P16 (PGT-145) (antibody), in experiment [14], the IC50, pseudovirus neutralization is 7.08 µg/mL. The substance also registered an IC50 (µg/mL), single-round pseudovirus neutralization in experiment [15] above 50 µg/mL. Also, the IC50 (µg/mL), pseudovirus neutralization in [13] was determined as 0.046 µg/mL.
Substance 4980_N08 (PGT-143) (antibody) displayed an IC50, pseudovirus neutralization in [14] above 50 µg/mL. This substance also returned an IC50 (µg/mL), single-round pseudovirus neutralization in experiment [15] above 50 µg/mL. In addition, the IC50 (µg/mL), pseudovirus neutralization in [13] is 43 µg/mL.
As to 5123_A06 (PGT-125) (antibody), the IC50, pseudovirus neutralization was 0.009 µg/mL in experiment [1]; 0.012 µg/mL in experiment [2]; 0.157 µg/mL in [3]; 0.0359 µg/mL with HIV-1 APV6 Env (HIV-1); above 50 µg/mL in experiment [5]; 0.064 µg/mL in [6]. In addition, the figures for the IC50, pseudovirus neutralization in [7], in [10] and in [11] were above 50 µg/mL, above 50 µg/mL and 0.036 µg/mL, respectively. The substance also returned a Neutralization by PGT-125, IC50 in experiment [24] above 10 µg/mL. The same substance gave a Neutralization by PGT-125, IC80 in experiment [24] above 10 µg/mL. In addition, the Neutralization by PGT-125, IC90 in experiment [24] is above 10 µg/mL. This substance had a Neutralization by PGT-125, IC95 in experiment [24] above 10 µg/mL. Moreover, the Fold IC50 increase relative to wild-type (pseudovirus neutralization) in [4] amounted to 1.6 fold; in experiment [8] it was 0.5 fold; in experiment [9] it was 0.5 fold.
Turning to 1496_C09 (PG9) (TCN-109) (antibody), the IC50 (µg/ml), pseudovirus neutralization amounted to 1.51 µg/mL in experiment [25]; 2.97 µg/mL in experiment [26]; 7.69 µg/mL in experiment [24]; 0.51 µg/mL in experiment [29]; 0.01 µg/mL in experiment [30]; 0.01 µg/mL in experiment [31]. In addition, the IC50 (µg/ml), pseudovirus neutralization is 11.2 µg/mL in experiment [32], 6.32 µg/mL in [33] and 0.24 µg/mL in experiment [34]. For the same substance, the IC50, pseudovirus neutralization in experiment [27] stood at 0.03 µg/mL; with HIV-1 APV6 Env (HIV-1) it was 0.214 µg/mL. The substance also showed an IC90 (neutralization of pseudovirus) in experiment [28] of 1.89 µg/mL. Also, the values for the IC50 (µg/mL), pseudovirus neutralization in experiment [12] and in experiment [13] were 0.019 µg/mL and 0.891 µg/mL, respectively. The substance also came in with a neutralization IC50 in [35] of 0.0869 µg/mL.
